Measured values: patent US20090098111A1

Target: Xatr-XatripΔN222-FLAG complex (Xenopus laevis)
Test: cell-based or functional assay

Sequence of Xatr-XatripΔN222-FLAG complex (Xenopus laevis) (Q5EGL8 whole entry, stated change not applied, one chain of several): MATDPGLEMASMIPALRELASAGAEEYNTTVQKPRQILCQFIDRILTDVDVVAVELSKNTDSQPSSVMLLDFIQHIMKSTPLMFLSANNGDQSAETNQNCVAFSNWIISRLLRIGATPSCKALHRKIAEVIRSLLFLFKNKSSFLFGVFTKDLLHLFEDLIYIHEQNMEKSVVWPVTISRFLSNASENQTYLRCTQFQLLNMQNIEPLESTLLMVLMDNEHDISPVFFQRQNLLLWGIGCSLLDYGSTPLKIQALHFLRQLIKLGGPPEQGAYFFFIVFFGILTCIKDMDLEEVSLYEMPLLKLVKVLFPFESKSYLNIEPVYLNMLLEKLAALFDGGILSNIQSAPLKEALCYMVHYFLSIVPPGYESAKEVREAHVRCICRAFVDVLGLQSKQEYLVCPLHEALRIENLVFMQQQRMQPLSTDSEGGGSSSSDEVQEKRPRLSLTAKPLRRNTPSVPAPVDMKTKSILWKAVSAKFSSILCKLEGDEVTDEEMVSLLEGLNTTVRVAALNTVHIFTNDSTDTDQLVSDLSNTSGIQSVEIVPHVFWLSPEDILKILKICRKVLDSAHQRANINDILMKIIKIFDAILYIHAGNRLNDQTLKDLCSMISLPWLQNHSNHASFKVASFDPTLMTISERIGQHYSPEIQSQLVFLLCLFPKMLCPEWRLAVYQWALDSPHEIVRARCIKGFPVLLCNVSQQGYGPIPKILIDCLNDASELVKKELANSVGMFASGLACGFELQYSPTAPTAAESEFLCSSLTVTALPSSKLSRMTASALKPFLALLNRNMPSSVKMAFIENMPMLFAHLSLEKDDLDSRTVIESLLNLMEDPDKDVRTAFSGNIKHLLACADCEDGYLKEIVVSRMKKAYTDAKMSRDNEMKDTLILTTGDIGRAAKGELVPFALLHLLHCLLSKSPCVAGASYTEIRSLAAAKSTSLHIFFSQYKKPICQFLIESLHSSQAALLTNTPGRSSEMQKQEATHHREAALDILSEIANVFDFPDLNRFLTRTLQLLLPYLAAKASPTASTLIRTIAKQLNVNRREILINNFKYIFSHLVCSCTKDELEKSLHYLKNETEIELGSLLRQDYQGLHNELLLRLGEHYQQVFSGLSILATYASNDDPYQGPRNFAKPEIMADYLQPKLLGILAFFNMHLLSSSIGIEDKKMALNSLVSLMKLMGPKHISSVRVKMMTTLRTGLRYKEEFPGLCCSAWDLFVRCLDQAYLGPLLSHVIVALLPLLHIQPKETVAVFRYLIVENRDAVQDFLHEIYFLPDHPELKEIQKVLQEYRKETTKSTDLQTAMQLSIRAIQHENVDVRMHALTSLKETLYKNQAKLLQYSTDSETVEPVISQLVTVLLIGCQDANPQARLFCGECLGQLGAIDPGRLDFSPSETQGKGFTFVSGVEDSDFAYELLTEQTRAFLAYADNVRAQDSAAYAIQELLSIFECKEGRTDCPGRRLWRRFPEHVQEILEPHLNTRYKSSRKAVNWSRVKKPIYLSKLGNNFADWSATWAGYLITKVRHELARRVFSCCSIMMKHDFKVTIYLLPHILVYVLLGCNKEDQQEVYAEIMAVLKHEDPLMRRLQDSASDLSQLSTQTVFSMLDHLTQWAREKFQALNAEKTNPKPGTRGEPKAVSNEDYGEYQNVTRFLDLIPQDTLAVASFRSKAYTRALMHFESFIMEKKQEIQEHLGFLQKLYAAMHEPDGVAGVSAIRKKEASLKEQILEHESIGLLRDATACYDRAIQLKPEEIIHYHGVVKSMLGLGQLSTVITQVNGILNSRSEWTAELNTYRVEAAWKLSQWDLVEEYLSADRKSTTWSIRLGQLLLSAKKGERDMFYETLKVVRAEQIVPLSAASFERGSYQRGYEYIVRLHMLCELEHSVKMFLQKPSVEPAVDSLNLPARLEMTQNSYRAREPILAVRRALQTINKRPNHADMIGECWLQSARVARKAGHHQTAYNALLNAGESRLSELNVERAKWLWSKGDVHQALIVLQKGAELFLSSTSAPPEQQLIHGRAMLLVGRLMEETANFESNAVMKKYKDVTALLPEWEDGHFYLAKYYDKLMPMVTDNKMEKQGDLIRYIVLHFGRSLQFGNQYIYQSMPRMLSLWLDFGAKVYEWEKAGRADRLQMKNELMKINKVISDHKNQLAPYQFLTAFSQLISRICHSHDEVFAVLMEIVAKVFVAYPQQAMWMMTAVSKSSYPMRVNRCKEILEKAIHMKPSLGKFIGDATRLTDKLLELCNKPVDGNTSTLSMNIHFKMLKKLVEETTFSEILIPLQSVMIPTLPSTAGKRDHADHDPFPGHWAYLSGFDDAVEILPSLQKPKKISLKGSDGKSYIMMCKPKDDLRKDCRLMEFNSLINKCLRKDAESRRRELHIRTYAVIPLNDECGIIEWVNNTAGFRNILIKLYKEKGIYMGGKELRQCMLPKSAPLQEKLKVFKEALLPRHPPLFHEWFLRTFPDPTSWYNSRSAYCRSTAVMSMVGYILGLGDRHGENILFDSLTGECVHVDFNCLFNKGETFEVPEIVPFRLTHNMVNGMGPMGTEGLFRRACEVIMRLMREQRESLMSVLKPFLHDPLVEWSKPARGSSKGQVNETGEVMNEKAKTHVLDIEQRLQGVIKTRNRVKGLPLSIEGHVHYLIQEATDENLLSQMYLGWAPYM

half-maximal induction of kinase activity: 10 to 15 µg/mL
Substance: His6-XtopBP1 (full-length) (from UniProt Q800K6 1-1513)
